Columns and labels:
Format in all cases: biochemical, Streptomyces melanosporofaciens
steady-state kinetics [1] = substrate: CC(C)=CCC/C(C)=C/COP(=O)(O)OP(=O)(O)O; test: steady-state kinetics; conditions: prenylation; saturating indole as co-substrate; Mg2+-dependent
steady-state kinetics [2] = substrate: c1ccc2[nH]ccc2c1; test: steady-state kinetics; conditions: prenylation acceptor; saturating GPP as co-substrate; Mg2+-dependent
[3] = substrate: CC(C)=CCC/C(C)=C/CC/C(C)=C/CC/C(C)=C/COP(=O)(O)OP(=O)(O)O; test: steady-state kinetics, nonlinear fit of initial velocities; conditions: cyclization reaction; Mg2+-dependent

B1: cyclooctat-9-en-7-ol synthase (CotB2) (Streptomyces melanosporofaciens) (protein)
chain: MTTGLSTAGAQDIGRSSVRPYLEECTRRFQEMFDRHVVTRPTKVELTDAELREVIDDCNAAVAPLGKTVSDERWISYVGVVLWSQSPRHIKDMEAFKAVCVLNCVTFVWDDMDPALHDFGLFLPQLRKICEKYYGPEDAEVAYEAARAFVTSDHMFRDSPIKAALCTTSPEQYFRFRVTDIGVDFWMKMSYPIYRHPEFTEHAKTSLAARMTTRGLTIVNDFYSYDREVSLGQITNCFRLCDVSDETAFKEFFQARLDDMIEDIECIKAFDQLTQDVFLDLIYGNFVWTTSNKRYKTAVNDVNSRIQ
In the case of B1, the Km (steady-state kinetics [1]) is reported as 390 ± 20 µM, the Km (steady-state kinetics [2]) is reported as 290 ± 60 µM and the Km [3] is reported as 43 ± 6 µM. For the same protein, the kcat [3] was “(6.7 ± 0.3) × 10^−3 s^−1”.
